This is an account of results in the RNAGym collection of RNA variant scans (doi:10.1093/molbev/msab373).

To fix the notation:
B1: Azoarcus group I ribozyme (parent)
chain: GUGCCUUGCGCCGGGAAACCACGCAAGGGAUGGUGUCAAAUUCGGCGAAACCUAAGCGCCCGCCCGGGCGUAUGGCAACGCCGAGCCAAGCUUCGGCGCCUGCGCCGAUGAAGGUGUAGAGACUAGACGGCACCCACCUAAGGCAAACGCUAUGGUGAAGGCAUAGUCCAGGGAGUGGCGAAAGUCACACAAACCGG

Variants of B1 are the subject of the series. In words: reverse-splicing fitness (ratio to wild type); higher = more active; in vitro selection; Mg2+ level not given. In outline:
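An in vitro group I ribozyme library with randomized positions was T7-transcribed and gel-purified. In triplicate, 10 pmol RNA in EPPS pH 7.5 was reacted with 50 pmoles of a 30-nt RNA substrate for 1 h at 37 °C across several added MgCl2 levels (1–48 mM), then stopped with EDTA. Products were reverse transcribed from a substrate-complementary primer, PCR-amplified and sequenced (HiSeq 4000). Fitness is a variant's read proportion after selection over that before, normalised to wild type.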
Regarding C82U A120U A145G C150G U176C, the reverse-splicing fitness came to 0.0113.

As for C82G A111C A120G A145G C150U U176A, the reverse-splicing fitness came out at 0.0105.

Turning to C82G A111G A120C A145U C150A C169G U176A, the reverse-splicing fitness turned out to be 0.0168.

Regarding C82A A111C A120U A145U C150A C169U, the reverse-splicing fitness was found to be 0.00332.

Regarding C82G A111U A120G A145C C150U C169G U176G, the reverse-splicing fitness is 0.00518.

Regarding C82U A111G A145U C169A U176C, the reverse-splicing fitness is 0.00683.

In the case of A111U A120G A145C C150U, the reverse-splicing fitness was determined as 0.0388.

Turning to A111U A120C A145U C150G C169A U176A, the reverse-splicing fitness turned out to be 0.00913.

With C82U A111C A145G C150U C169U U176C, the reverse-splicing fitness amounted to 0.0121.

On to C82G A111G C150A U176G, for which the reverse-splicing fitness is 0.0174.

In the case of C82U C150U C169U U176C, the reverse-splicing fitness came to 0.0135.

Regarding C82A A120C A145U C150A C169G U176G, the reverse-splicing fitness turned out to be 0.00546.

As for C82G A111G A120U A145C C169U, the reverse-splicing fitness stood at 0.00478.

On to A111G A120U A145C C150U C169A U176A, for which the reverse-splicing fitness was 0.00259.

With A120G A145U C169A, the reverse-splicing fitness came to 0.447.

In the case of C82U A111G A120G C169G U176A, the reverse-splicing fitness came out at 0.0186.

Turning to C82A A111U A145U C150G, the reverse-splicing fitness turned out to be 0.0256.

Turning to C82U A111G A145U C150U U176A, the reverse-splicing fitness came out at 0.123.

For C82A A120G A145G C169A U176A, the reverse-splicing fitness came to 0.0208.

In the case of C82U A111G A120U C150U U176G, the reverse-splicing fitness worked out at 0.00374.

Take C82A A111C A120U A145U C169U U176C: the reverse-splicing fitness came out at 0.00253.

For the variant C82U A120G A145G C150A C169G, the reverse-splicing fitness was 0.0101.

Regarding A120G A145U C150G C169G U176G, the reverse-splicing fitness worked out at 0.00487.

Regarding C82A A111U A120C A145C C150G, the reverse-splicing fitness amounted to 0.00984.

On to C82G A111C C169U U176C, for which the reverse-splicing fitness came out at 0.0154.

Take C82G A111C A120U C150A U176A: the reverse-splicing fitness was 0.00581.

For C82G A111C A120U A145G C150U C169A U176A, the reverse-splicing fitness was determined as 0.00776.

Turning to A111U A120U C150G C169G U176A, the reverse-splicing fitness amounted to 0.00371.

As for C82A A111U A145G C150U, the reverse-splicing fitness was determined as 0.222.

In the case of C82U A111C A120U A145U C150A C169G, the reverse-splicing fitness worked out at 0.00265.

Consider C82G A111G A120C C150G C169G, for which the reverse-splicing fitness stood at 0.008.

As to C82A A111G A145G C150U, the reverse-splicing fitness worked out at 0.32.

As for A111G A120C A145C C150U C169A U176A, the reverse-splicing fitness amounted to 0.00824.

In the case of A120C C150A U176G, the reverse-splicing fitness amounted to 0.0764.

In the case of C82A A120G A145G C150G C169U, the reverse-splicing fitness was determined as 0.0106.

As for A111C A120G A145G C169G U176G, the reverse-splicing fitness came to 0.00512.

As to C82U A120G A145U C150G U176C, the reverse-splicing fitness was 0.00808.

In the case of A111G A120U C150U C169G U176C, the reverse-splicing fitness stood at 0.0106.

C82A A111G A120U C150G C169G U176G: the reverse-splicing fitness worked out at 0.00237.

As for C82G A145U C150U C169A, the reverse-splicing fitness worked out at 0.00964.

In the case of A111C A120C A145C C150U U176C, the reverse-splicing fitness worked out at 0.0914.

For C82A A111C A120G A145G C169U U176A, the reverse-splicing fitness is 0.0159.

A120U A145G C169A: the reverse-splicing fitness was determined as 0.0154.

On to C82U A111C A120G C150A C169U, for which the reverse-splicing fitness amounted to 0.00789.

Consider A120U A145G U176C, for which the reverse-splicing fitness worked out at 0.685.

Consider A111G A120U C150G, for which the reverse-splicing fitness came out at 0.0688.

Consider C82A A111C A120C A145U C169G U176A, for which the reverse-splicing fitness turned out to be 0.0151.

For the variant C82U A111G A145C C150U C169A U176G, the reverse-splicing fitness was 0.00526.

Take C82A A111C A120C A145C C150G C169A U176A: the reverse-splicing fitness turned out to be 0.00949.

In the case of C82G A111C A120C A145G C169A U176A, the reverse-splicing fitness amounted to 0.0223.

On to A120G C169U, for which the reverse-splicing fitness was 0.418.

Turning to C82U A111G A120G A145C C150G C169U U176G, the reverse-splicing fitness amounted to 0.00462.

As for C82U A111G A145G C150G C169A U176C, the reverse-splicing fitness was 0.0111.

Turning to C82A A111G A145C C150A C169A U176G, the reverse-splicing fitness came out at 0.00644.

Turning to C82A A111G A120G C169G U176G, the reverse-splicing fitness amounted to 0.00458.

A111G A145U C150A: the reverse-splicing fitness came out at 0.365.

Regarding C82U A120U C150G, the reverse-splicing fitness worked out at 0.0156.

For C82A A111U A120G A145U C169G U176A, the reverse-splicing fitness was determined as 0.0119.

For the variant C82A A111C A120G A145C C150A C169U U176G, the reverse-splicing fitness was found to be 0.00495.

Consider C82G A111G A120C C150U C169A U176G, for which the reverse-splicing fitness was determined as 0.00693.

Turning to C82G A111G A120G A145U C150A C169U U176C, the reverse-splicing fitness turned out to be 0.0177.

Turning to C82G A111U A120G A145C C150U C169U U176G, the reverse-splicing fitness came out at 0.00513.

Turning to C82G A111C C150A C169U U176A, the reverse-splicing fitness turned out to be 0.0193.

As to C82A A120U A145G C150A U176A, the reverse-splicing fitness came out at 0.0103.

As for A111G A120U A145G C150G C169G U176A, the reverse-splicing fitness was found to be 0.00719.

Regarding C82U A120C A145C C150U, the reverse-splicing fitness turned out to be 0.0393.

With C82G A111C A120G C150U C169A U176C, the reverse-splicing fitness turned out to be 0.0135.

With A111U A120U A145C C150U C169U U176A, the reverse-splicing fitness stood at 0.0036.

As to C82G A111G A120G A145U C169A U176C, the reverse-splicing fitness turned out to be 0.0152.

Take C82A A111U A145U C150A C169A: the reverse-splicing fitness is 0.0092.

For C82A A111U A120C A145U C169A U176C, the reverse-splicing fitness stood at 0.0235.

Take A111G A120G A145G C150U C169U U176C: the reverse-splicing fitness is 0.0831.

Turning to C82A A111C A120G A145U C169A U176A, the reverse-splicing fitness is 0.00852.

With C82U A111U A120U C150U U176C, the reverse-splicing fitness came out at 0.0088.

Turning to C82U A111U A120U C150U U176G, the reverse-splicing fitness amounted to 0.00363.

Regarding C82U A120C C150G C169G U176C, the reverse-splicing fitness was found to be 0.00447.

Consider A120G A145G C169A U176C, for which the reverse-splicing fitness was found to be 0.185.

On to C82A A111U C150G C169G U176C, for which the reverse-splicing fitness came out at 0.00482.

On to C82A A111U A120U C150G, for which the reverse-splicing fitness was determined as 0.00757.

On to C82U A120G C150U U176G, for which the reverse-splicing fitness is 0.00504.

Consider C82A A111U A120U C150U C169G U176A, for which the reverse-splicing fitness turned out to be 0.00965.

On to C82U A111U A120U A145G C150G C169U, for which the reverse-splicing fitness is 0.00706.

Turning to A111G A120G A145U C150G C169U U176A, the reverse-splicing fitness is 0.0148.
